From US20200140551A1 (GlaxoSmithKline, published 2020)

Assays:
[1] = biological target: T1, human ICOS on human T cells (human, UniProt Q9Y6W8 21-167); experiment: flow cytometry, activated human CD4 T cells, percent FITC positive, donor 1123F59
T1 construct: endogenous receptor on primary cells; also called ICOS on CD4+ and CD8+ T cells of healthy human donors
T1 sequence: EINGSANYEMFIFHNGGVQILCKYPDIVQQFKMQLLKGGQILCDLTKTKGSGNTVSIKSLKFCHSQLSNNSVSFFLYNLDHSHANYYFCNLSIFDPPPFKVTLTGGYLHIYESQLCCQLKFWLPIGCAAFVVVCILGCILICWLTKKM
Experimental: (§1) Binding of H2L5 hIgG4PE was assessed in both naive and activated CD3+ T cells.
(§2) Either naive and/or activated CD3+ T cells were re-suspended in PBS with 0.1% BSA (FACS Buffer) containing Human FcR Blocking Solution at 2×10⁶ cells/mL (5 μl FcR Blocking Solution+[…] FACS Buffer per 1 mL). At a concentration of 2×10⁵ cells/well, 100 μl cells were placed into 2 mL 96 well Assay Blocks and incubated at room temperature for 15 minutes. During the incubation, a titration of the binding antibodies, anti-ICOS (H2L5 hIgG4PE) or IgG4 Isotype Control antibody was prepared as a 2× concentration. […] Following the binding incubation, cells were washed twice in 1 mL of FACS buffer, centrifuging at 400×g for 5 minutes at room temperature.
(§3) Data acquisition and compensation were performed on BD FACS instruments, LSR Fortessa X-20 or FACS Canto II using BD Diva (ver. 8.0) software. Data analysis employed Flow Jo software (ver.10.0.8r1). Results are reported as both MFI (Median Fluorescence Intensity) and Percent of cells positive for human IgG kappa light chain FITC staining out of the total live cells or appropriate parent population. EC50s were determined using Graphpad Prism 5 software (ver. 5.04) with non-linear regression of transformed data (X=(log(X)) using a variable slope with 4 parameters (log(Agonist) vs. response—Variable slope).

[2] = biological target: T1, human ICOS on human T cells; experiment: cell-based or functional assay
[3] = biological target: T1, human ICOS on human T cells; experiment: flow cytometry, activated human CD8 T cells, percent FITC positive, donor 1124F36
Experimental: as §1, §2, §3

[4] = biological target: T1, human ICOS on human T cells; experiment: flow cytometry, activated human CD4 T cells, FITC MFI, donor 1124F36
Experimental: as §1, §2, §3

[5] = biological target: T1, human ICOS on human T cells; experiment: flow cytometry, activated human CD4 T cells, FITC MFI, donor 1149M52
Experimental: as §1, §2, §3

B1: H2L5 hIgG4PE (antibody)
heavy: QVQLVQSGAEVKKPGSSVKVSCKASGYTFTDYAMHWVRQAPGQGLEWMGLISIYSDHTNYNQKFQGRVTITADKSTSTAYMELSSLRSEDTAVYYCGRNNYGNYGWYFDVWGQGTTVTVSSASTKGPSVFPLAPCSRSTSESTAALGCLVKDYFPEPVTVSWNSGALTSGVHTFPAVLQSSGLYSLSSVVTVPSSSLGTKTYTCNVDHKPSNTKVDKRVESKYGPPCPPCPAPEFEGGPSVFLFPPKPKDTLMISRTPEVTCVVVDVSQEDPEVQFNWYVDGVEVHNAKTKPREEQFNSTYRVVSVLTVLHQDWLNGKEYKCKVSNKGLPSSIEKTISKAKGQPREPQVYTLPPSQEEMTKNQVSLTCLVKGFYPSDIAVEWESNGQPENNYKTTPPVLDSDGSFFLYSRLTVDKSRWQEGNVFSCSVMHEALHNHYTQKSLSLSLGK
light: EIVLTQSPATLSLSPGERATLSCSASSSVSYMHWYQQKPGQAPRLLIYDTSKLASGIPARFSGSGSGTDYTLTISSLEPEDFAVYYCFQGSGYPYTFGQGTKLEIKRTVAAPSVFIFPPSDEQLKSGTASVVCLLNNFYPREAKVQWKVDNALQSGNSQESVTEQDSKDSTYSLSSTLTLSKADYEKHKVYACEVTHQGLSSPVTKSFNRGEC
notes: also called 422 H2L5 hIgG4PE; H2L5 IgG4PE; copies: 2 + 2
2 µg/mL: EC50, CD8+CD25+, PBMC activation assay, donor 185M45, 24 hr [2]
1.1 µg/mL: EC50, CD4+CD69+, PBMC activation assay, donor 1124F36, 24 hr [2] | EC50, CD4+CD69+, PBMC activation assay, donor 1124F36, 48 hr [2] | EC50, CD8+CD69+, PBMC activation assay, donor 1124F36, 48 hr [2] | EC50, IL-6, PBMC activation assay, donor 1136F50, 48 hr [2] | EC50, IL-17a, PBMC activation assay, donor 185M45, 48 hr [2]
1.6 µg/mL: EC50, CD4+OX40+, PBMC activation assay, donor 185M45, 24 hr [2] | EC50, CD8+OX40+, PBMC activation assay, donor 185M45, 24 hr [2] | EC50, IL-17a, PBMC activation assay, donor 1136F50, 48 hr [2]
0.2 µg/mL: EC50, CD4+OX40+, PBMC activation assay, donor 1136F50, 24 hr [2] | EC50, IFN-γ, PBMC activation assay, donor 1149M52, 24 hr [2] | EC50, IL-6, PBMC activation assay, donor 1149M52, 24 hr [2] | EC50, TNF-α, PBMC activation assay, donor 1149M52, 48 hr [2]
2.4 µg/mL: EC50, CD4+CD25+, PBMC activation assay, donor 185M45, 24 hr [2] | EC50, CD8+OX40+, PBMC activation assay, donor 1124F36, 24 hr [2]
1.4 µg/mL: EC50, IL-17a, PBMC activation assay, donor 1136F50, 24 hr [2]
0.3 µg/mL: EC50, CD4+CD25+, PBMC activation assay, donor 1136F50, 24 hr [2] | EC50, CD8+Ki67+, PBMC activation assay, donor 1149M52, 48 hr [2] | EC50, CD8+OX40+, PBMC activation assay, donor 1136F50, 24 hr [2] | EC50, CD8+OX40+, PBMC activation assay, donor 1149M52, 48 hr [2] | EC50, IFN-γ, PBMC activation assay, donor 185M45, 24 hr [2] | EC50, IFN-γ, PBMC activation assay, donor 1124F36, 24 hr [2] | EC50, IL-6, PBMC activation assay, donor 1149M52, 48 hr [2] | EC50, TNF-α, PBMC activation assay, donor 1124F36, 48 hr [2] | EC50, TNF-α, PBMC activation assay, donor 1136F50, 48 hr [2]
0.7 µg/mL: EC50, CD8+CD25+, PBMC activation assay, donor 1136F50, 48 hr [2] | EC50, CD8+Ki67+, PBMC activation assay, donor 1124F36, 48 hr [2] | EC50, IFN-γ, PBMC activation assay, donor 185M45, 48 hr [2] | EC50, IL-6, PBMC activation assay, donor 185M45, 24 hr [2] | EC50, IL-6, PBMC activation assay, donor 1136F50, 24 hr [2] | EC50, IL-10, PBMC activation assay, donor 185M45, 24 hr [2] | EC50, IL-10, PBMC activation assay, donor 1124F36, 24 hr [2] | EC50, IL-17a, PBMC activation assay, donor 1149M52, 24 hr [2]
1.3 µg/mL: EC50, IL-10, PBMC activation assay, donor 1136F50, 48 hr [2]
0.619 µg/mL: EC50 [3]
0.6 µg/mL: EC50, CD4+CD25+, PBMC activation assay, donor 1124F36, 24 hr [2] | EC50, CD4+CD25+, PBMC activation assay, donor 1124F36, 48 hr [2] | EC50, CD4+CD25+, PBMC activation assay, donor 1136F50, 48 hr [2] | EC50, CD4+CD25+, PBMC activation assay, donor 1149M52, 24 hr [2] | EC50, CD4+Ki67+, PBMC activation assay, donor 185M45, 48 hr [2] | EC50, CD4+OX40+, PBMC activation assay, donor 1124F36, 24 hr [2] | EC50, CD4+OX40+, PBMC activation assay, donor 1149M52, 24 hr [2] | EC50, CD8+CD25+, PBMC activation assay, donor 1124F36, 24 hr [2] | EC50, CD8+CD69+, PBMC activation assay, donor 1136F50, 48 hr [2] | EC50, CD8+CD69+, PBMC activation assay, donor 1149M52, 24 hr [2] | EC50, IFN-γ, PBMC activation assay, donor 1149M52, 48 hr [2] | EC50, IL-10, PBMC activation assay, donor 1124F36, 48 hr [2] | EC50, IL-10, PBMC activation assay, donor 1149M52, 48 hr [2] | EC50, IL-17a, PBMC activation assay, donor 1124F36, 24 hr [2]
0.4 µg/mL: EC50, CD4+CD25+, PBMC activation assay, donor 1149M52, 48 hr [2] | EC50, CD4+CD69+, PBMC activation assay, donor 1136F50, 48 hr [2] | EC50, CD4+CD69+, PBMC activation assay, donor 1149M52, 48 hr [2] | EC50, CD4+OX40+, PBMC activation assay, donor 1136F50, 48 hr [2] | EC50, CD4+OX40+, PBMC activation assay, donor 1149M52, 48 hr [2] | EC50, CD8+CD25+, PBMC activation assay, donor 1136F50, 24 hr [2] | EC50, CD8+CD25+, PBMC activation assay, donor 1149M52, 48 hr [2] | EC50, CD8+CD69+, PBMC activation assay, donor 1149M52, 48 hr [2] | EC50, CD8+Ki67+, PBMC activation assay, donor 185M45, 48 hr [2] | EC50, IFN-γ, PBMC activation assay, donor 1136F50, 24 hr [2]
1 µg/mL: EC50, CD8+CD25+, PBMC activation assay, donor 1149M52, 24 hr [2] | EC50, IL-17a, PBMC activation assay, donor 1149M52, 48 hr [2]
1.5 µg/mL: EC50, CD8+OX40+, PBMC activation assay, donor 1149M52, 24 hr [2] | EC50, IFN-γ, PBMC activation assay, donor 1136F50, 48 hr [2]
0.8 µg/mL: EC50, CD4+CD69+, PBMC activation assay, donor 185M45, 24 hr [2] | EC50, CD4+Ki67+, PBMC activation assay, donor 1124F36, 48 hr [2] | EC50, CD8+CD69+, PBMC activation assay, donor 1124F36, 24 hr [2] | EC50, IL-6, PBMC activation assay, donor 185M45, 48 hr [2] | EC50, IL-10, PBMC activation assay, donor 185M45, 48 hr [2] | EC50, IL-17a, PBMC activation assay, donor 185M45, 24 hr [2] | EC50, IL-17a, PBMC activation assay, donor 1124F36, 48 hr [2]
0.628 µg/mL: EC50 [4]
0.853 µg/mL: EC50 [1]
0.5 µg/mL: EC50, CD4+CD25+, PBMC activation assay, donor 185M45, 48 hr [2] | EC50, CD4+CD69+, PBMC activation assay, donor 1136F50, 24 hr [2] | EC50, CD4+CD69+, PBMC activation assay, donor 1149M52, 24 hr [2] | EC50, CD4+Ki67+, PBMC activation assay, donor 1149M52, 48 hr [2] | EC50, CD8+CD25+, PBMC activation assay, donor 185M45, 48 hr [2] | EC50, CD8+CD25+, PBMC activation assay, donor 1124F36, 48 hr [2] | EC50, CD8+CD69+, PBMC activation assay, donor 185M45, 48 hr [2] | EC50, CD8+CD69+, PBMC activation assay, donor 1136F50, 24 hr [2] | EC50, CD8+OX40+, PBMC activation assay, donor 1124F36, 48 hr [2] | EC50, CD8+OX40+, PBMC activation assay, donor 1136F50, 48 hr [2] | EC50, IFN-γ, PBMC activation assay, donor 1124F36, 48 hr [2] | EC50, IL-10, PBMC activation assay, donor 1149M52, 24 hr [2] | EC50, TNF-α, PBMC activation assay, donor 185M45, 48 hr [2]
1.31 µg/mL: EC50 [5]
1.7 µg/mL: EC50, IL-10, PBMC activation assay, donor 1136F50, 24 hr [2]
1.2 µg/mL: EC50, CD4+OX40+, PBMC activation assay, donor 1124F36, 48 hr [2] | EC50, CD8+CD69+, PBMC activation assay, donor 185M45, 24 hr [2]
